Tests used:
[1] = system: ErbB2 and myelin protein zero (MPZ) expression; assay: Immunoblot of nerve tissue from Nf1flox;Postn-Cre mice; type: in vivo; conditions: rhNRG1 over 3 months
Text: A, Study protocol used to assess the efficacy of systemic rhNRG1 treatment on schwannoma growth in Nf1flox;Postn-Cre animals. B, Representative longitudinal nerve section from six-month-old mutant Nf1flox;Postn-Cre mice indicating a circumscribed area of neurofibroma growth. Scale bars represent 50 μm. C, Fraction of tumor tissue within total tissue was quantified as area covered by tumor in relation to the total nerve area in investigated nerve sections. Nf1flox;Postn-Cre mutant mice receiving intraperitoneal saline injections (KO vehicle ip) were compared to mutants on rhNRG1 injections (KO rhNRG1 ip; n=6 animals per genotype; mean±SEM). D, Immunoblot of pooled tissue from at least three different animals prepared from sciatic nerves, brachial nerves, trigeminal nerves and dorsal root ganglions (DRG). Nf1flox;Postn-Cre mutant animals received either vehicle control injections (KO vehicle ip) or rhNRG1 treatment (KO rhNRG1 ip) over 3 months. Immunostaining for ErbB2, Akt, phospho-Akt (pAkt), c-Jun, Erk1/2, phospho-Erk1/2 (pErk1/2), myelin protein zero (MPZ), myelin basic protein (MBP) and GAPDH as loading control (n=3).
Immunoblotting was performed as described in (Morrison et al., 2001). […] Western blot results were quantified using Gel analysis software by ImageJ. […]

[2] = system: Schwann cell differentiation markers in crushed sciatic nerves; assay: Immunoblot of sciatic nerve lysates after 3 months of treatment; type: in vivo, Nf2flox;P0-Cre;Nefh-Cre mice
Experimental: Immunoblotting was performed as described in (Morrison et al., 2001). The following primary antibodies were used: phospho-c-Jun (Ser73; 1:1000; Cell Signalling; 8752), anti-Nrg1 (1:250; Santa Cruz; clone C-20), anti-Erk (1:500; Cell Signalling), anti-phospho-Erk (T202/Y204; 1:500; Cell Signalling), anti-ErbB2 (1:500; Cell Signalling), anti-GAPDH (1:1000; Santa Cruz; 6C5), anti-merlin (1:500; Santa Cruz; A19). Western blot results were quantified using Gel analysis software by ImageJ. Density values were normalized to actin and appropriate controls of transfection or wild-type tissue, respectively. In case of phospho-specific detection of proteins, their acquired densities were referred to signals derived from related pan-antibodies (e.g. phospho-Erk to Erk signals).
Sciatic nerve crush injury was performed on WT and Nf2flox;P0-Cre;Nefh-Cre mutant animals as described in Example 1. The Nf2flox;P0-Cre;Nefh-Cre mutant animals were intraperitoneally injected every day with 10 μg of rhNRG1 per kg body weight (KO rhNRG1). For a control a PBS solution was systemically administered to WT animals and Nf2flox;P0-Cre;Nefh-Cre mutant animals (WT vehicle and KO vehicle). Sciatic nerve lysates were taken from animals after 3 month of treatment upon which immunochemistry was performed as described in Example 1.

B1: rhNRG1: EGF domain containing 7 kDa protein of recombinant human Neuregulin 1, purchased from Reprokine (#RKQ02297) (protein, listed as Homo sapiens)
chain: SHLVKCAEKEKTFCVNGGECFMVKDLSNPSRYLCKCPNEFTGDRCQNYVMASFYKHLGIEF
ErbB2 expression (immunoblot) [1]: reduced
myelin protein zero (MPZ) expression (immunoblot) [1]: increased
21.5-kDa MBP isoform expression (immunoblot) ([2]; KO rhNRG1): strong up-regulation
myelin protein zero (MPZ) expression (immunoblot) ([2]; KO rhNRG1, 3 months of treatment, vs wildtype): reduced expression
17 kDa myelin basic protein (MBP) isoform expression (immunoblot) ([2]; KO rhNRG1 vs wildtype littermates): remarkable reduced expression
c-Jun levels (marker for undifferentiated Schwann cells) ([2]; knockout animals, systemic rhNRG1 injections): reduced
ErbB2 expression (immunoblot) ([2]; rhNRG1-treated knockout mice, high in vehicle-treated knockout): normal expression
macrophage number in nerve tissue (Iba-1 immunoblot) ([2]; systemic rhNRG1 treatment): not influenced
